Results: paper PMC6166713
pKd: −log10 of the molar value.

Key:
GST-WASP(201–321) R227A = GST-WASP(201–321) R227A (UniProt P42768); experiment: BLI; Octet Red; GST-WASP variants loaded on anti-GST sensors (10 μg/ml), dipped into a dilution range of Cdc42·GMPPNP; 50 mM Tris-HCl pH 7.5, 150 mM NaCl, 1 mM MgCl2, 0.02% Tween 20, 0.1% BSA, 0.05% sodium azide, 25 °C; GST-alone sensors subtracted
GST-WASP(201–321) K230A = GST-WASP(201–321) K230A (UniProt P42768); experiment: as above
GST-WASP(201–254) = GST-WASP(201–254) (UniProt P42768); experiment: scintillation proximity assay (SPA); 5 nM GST-WASP variant immobilised on protein A SPA fluoromicrospheres via an anti-GST antibody; varying concentrations of [3H]GTP·Cdc42; direct binding isotherm; apparent Kd; low-salt buffer
GST-WASP(201–321) L270A = GST-WASP(201–321) L270A (UniProt P42768); experiment: as above
GST-WASP(201–321) H246A = GST-WASP(201–321) H246A (UniProt P42768); experiment: as above
[1] = target: GST-WASP(201–321) wild type (UniProt P42768); experiment: as above
GST-WASP(201–321) F244A = GST-WASP(201–321) F244A (UniProt P42768); experiment: as above
GST-WASP(201–321) G251A = GST-WASP(201–321) G251A (UniProt P42768); experiment: as above
GST-WASP(201–321) F271A = GST-WASP(201–321) F271A (UniProt P42768); experiment: as above
GST-WASP(201–321) H249A = GST-WASP(201–321) H249A (UniProt P42768); experiment: as above
GST-WASP(201–321) W252A = GST-WASP(201–321) W252A (UniProt P42768); experiment: as above
GST-WASP(201–321) S242A = GST-WASP(201–321) S242A (UniProt P42768); experiment: as above
GST-WASP(201–321) K235A = GST-WASP(201–321) K235A (UniProt P42768); experiment: as above
GST-WASP(201–321) V250A = GST-WASP(201–321) V250A (UniProt P42768); experiment: as above
GST-WASP(201–321) L267A = GST-WASP(201–321) L267A (UniProt P42768); experiment: as above
GST-WASP(201–321) I233A = GST-WASP(201–321) I233A (UniProt P42768); experiment: as above
GST-WASP(201–321) P241A = GST-WASP(201–321) P241A (UniProt P42768); experiment: as above

Substance: Cdc42 Δ7 Q61L (from UniProt P60953 1-191) (natural protein)
- pKd (GST-WASP(201–321) R227A): 7.31
- koff (GST-WASP(201–321) R227A): 0.0281 s⁻¹
- kon (GST-WASP(201–321) R227A): 630000 M⁻¹ s⁻¹
- pKd (GST-WASP(201–321) K230A): 6.98
- koff (GST-WASP(201–321) K230A): 0.0498 s⁻¹
- kon (GST-WASP(201–321) K230A): 477000 M⁻¹ s⁻¹
- pKd (GST-WASP(201–254)): 7.50
- pKd (GST-WASP(201–321) L270A): 8.77
- pKd (GST-WASP(201–321) H246A): 7.37
- pKd [1]: 9.30
- pKd (GST-WASP(201–321) F244A): 7.19
- pKd (GST-WASP(201–321) G251A): 8.28
- pKd (GST-WASP(201–321) F271A): 8.30
- pKd (GST-WASP(201–321) H249A): 7.37
- pKd (GST-WASP(201–321) W252A): 8.02
- pKd (GST-WASP(201–321) S242A): 8.19
- pKd (GST-WASP(201–321) K235A): 8.10
- pKd (GST-WASP(201–321) V250A): 8.00
- pKd (GST-WASP(201–321) L267A): 8.49
- pKd (GST-WASP(201–321) I233A): 7.58
- pKd (GST-WASP(201–321) P241A): 7.42
